{"source": "patent US20240261333A1", "about": "“NOVEL TARGETS FOR ENHANCING ANTI-TUMOR IMMUNITY” (THE BROAD INSTITUTE, INC., priority 2021, published 2024)", "key": {"LSM12 (human)": {"biological_target": "LSM12 (human) (UniProt Q3MHD2)", "sequence (Q3MHD2 2-195 limits assumed)": "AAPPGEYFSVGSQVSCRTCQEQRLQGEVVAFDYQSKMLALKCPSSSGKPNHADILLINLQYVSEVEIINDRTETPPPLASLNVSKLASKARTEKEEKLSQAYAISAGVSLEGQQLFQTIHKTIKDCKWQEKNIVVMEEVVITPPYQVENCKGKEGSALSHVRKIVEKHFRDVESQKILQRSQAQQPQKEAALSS", "assay": "co-IP, anti-FLAG, lysate of cells with C-FLAG B3GNT2; mass spectrometry"}, "PUM1 (human)": {"biological_target": "PUM1 (human) (UniProt Q14671)", "sequence (Q14671 other isoform, or with tags, fused parts or gaps limits assumed)": "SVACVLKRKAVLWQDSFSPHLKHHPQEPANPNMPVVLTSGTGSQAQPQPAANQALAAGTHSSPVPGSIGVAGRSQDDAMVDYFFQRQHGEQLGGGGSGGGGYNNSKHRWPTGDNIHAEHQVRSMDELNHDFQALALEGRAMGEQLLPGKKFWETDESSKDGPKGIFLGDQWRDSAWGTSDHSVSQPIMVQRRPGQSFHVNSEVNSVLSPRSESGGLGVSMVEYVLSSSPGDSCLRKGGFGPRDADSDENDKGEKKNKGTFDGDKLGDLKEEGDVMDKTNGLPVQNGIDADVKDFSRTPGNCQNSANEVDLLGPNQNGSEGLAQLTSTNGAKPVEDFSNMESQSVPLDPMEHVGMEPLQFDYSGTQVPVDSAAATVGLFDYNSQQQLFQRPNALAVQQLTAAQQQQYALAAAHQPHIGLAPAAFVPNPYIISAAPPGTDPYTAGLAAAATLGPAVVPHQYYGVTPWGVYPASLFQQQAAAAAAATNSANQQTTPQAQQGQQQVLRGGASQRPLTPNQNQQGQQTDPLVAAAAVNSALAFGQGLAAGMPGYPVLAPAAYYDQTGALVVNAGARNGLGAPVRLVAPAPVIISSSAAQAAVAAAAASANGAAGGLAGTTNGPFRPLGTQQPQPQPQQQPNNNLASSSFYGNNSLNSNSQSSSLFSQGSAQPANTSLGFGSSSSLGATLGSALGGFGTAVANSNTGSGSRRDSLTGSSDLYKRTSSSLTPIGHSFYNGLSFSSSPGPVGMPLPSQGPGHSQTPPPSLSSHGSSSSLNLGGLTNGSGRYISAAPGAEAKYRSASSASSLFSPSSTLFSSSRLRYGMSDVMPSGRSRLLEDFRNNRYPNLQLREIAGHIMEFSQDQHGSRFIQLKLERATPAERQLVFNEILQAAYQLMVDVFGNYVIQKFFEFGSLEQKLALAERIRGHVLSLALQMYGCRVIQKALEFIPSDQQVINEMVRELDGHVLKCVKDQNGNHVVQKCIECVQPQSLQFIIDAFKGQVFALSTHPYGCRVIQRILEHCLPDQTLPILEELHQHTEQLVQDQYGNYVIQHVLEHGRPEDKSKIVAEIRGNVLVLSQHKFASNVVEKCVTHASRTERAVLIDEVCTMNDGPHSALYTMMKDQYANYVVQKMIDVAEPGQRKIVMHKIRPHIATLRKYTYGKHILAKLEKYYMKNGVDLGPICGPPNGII", "assay": "co-IP, anti-FLAG, lysate of cells with C-FLAG B3GNT2; mass spectrometry"}, "SERBP1 (human)": {"biological_target": "T1, SERBP1 (human) (UniProt Q8NC51)", "T1 sequence (looked up)": "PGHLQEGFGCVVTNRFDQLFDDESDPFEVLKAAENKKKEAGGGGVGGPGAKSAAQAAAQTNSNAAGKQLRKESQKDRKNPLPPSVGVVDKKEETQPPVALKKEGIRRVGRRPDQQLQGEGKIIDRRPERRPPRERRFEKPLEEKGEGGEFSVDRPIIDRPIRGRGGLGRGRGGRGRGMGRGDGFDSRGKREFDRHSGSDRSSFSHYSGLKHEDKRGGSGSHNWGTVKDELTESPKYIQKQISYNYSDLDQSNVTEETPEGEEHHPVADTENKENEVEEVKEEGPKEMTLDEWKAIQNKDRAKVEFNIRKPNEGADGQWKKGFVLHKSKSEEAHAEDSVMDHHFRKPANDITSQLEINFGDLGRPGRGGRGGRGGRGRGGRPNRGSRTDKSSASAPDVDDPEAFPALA", "assay": "co-IP, anti-FLAG, lysate of cells with C-FLAG B3GNT2; mass spectrometry"}, "MOV10 (human)": {"biological_target": "T2, MOV10 (human) (UniProt Q9HCE1)", "T2 sequence (looked up)": "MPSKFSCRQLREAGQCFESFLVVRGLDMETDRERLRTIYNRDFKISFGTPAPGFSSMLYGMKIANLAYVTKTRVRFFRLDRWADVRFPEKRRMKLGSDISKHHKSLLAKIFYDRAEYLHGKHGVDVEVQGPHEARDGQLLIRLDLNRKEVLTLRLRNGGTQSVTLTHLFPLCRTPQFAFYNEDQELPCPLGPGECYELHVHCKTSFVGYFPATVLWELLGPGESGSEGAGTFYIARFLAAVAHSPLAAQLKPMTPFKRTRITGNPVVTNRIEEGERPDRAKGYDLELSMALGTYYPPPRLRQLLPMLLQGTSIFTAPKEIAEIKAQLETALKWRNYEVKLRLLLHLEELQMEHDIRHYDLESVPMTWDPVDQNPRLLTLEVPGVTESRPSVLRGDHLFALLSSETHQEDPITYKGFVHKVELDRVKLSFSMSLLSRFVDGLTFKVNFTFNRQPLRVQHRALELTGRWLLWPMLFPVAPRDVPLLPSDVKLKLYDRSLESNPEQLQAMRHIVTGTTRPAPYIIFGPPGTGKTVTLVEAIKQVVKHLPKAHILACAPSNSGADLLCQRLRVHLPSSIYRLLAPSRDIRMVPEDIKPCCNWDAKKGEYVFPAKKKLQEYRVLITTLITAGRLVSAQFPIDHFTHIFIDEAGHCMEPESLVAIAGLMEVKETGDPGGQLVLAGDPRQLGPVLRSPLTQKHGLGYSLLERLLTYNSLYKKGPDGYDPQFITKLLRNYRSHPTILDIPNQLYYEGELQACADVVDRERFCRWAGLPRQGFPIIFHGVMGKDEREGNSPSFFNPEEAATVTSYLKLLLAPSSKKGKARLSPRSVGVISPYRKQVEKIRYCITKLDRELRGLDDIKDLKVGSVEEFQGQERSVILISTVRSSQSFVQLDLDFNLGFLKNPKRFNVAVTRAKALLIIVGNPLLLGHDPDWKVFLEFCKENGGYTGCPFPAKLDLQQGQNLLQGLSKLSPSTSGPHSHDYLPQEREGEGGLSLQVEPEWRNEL", "assay": "co-IP, anti-FLAG, lysate of cells with C-FLAG B3GNT2; mass spectrometry"}, "DNAJC3 (human)": {"biological_target": "DNAJC3 (human) (UniProt Q13217)", "sequence (Q13217 32-504 limits assumed)": "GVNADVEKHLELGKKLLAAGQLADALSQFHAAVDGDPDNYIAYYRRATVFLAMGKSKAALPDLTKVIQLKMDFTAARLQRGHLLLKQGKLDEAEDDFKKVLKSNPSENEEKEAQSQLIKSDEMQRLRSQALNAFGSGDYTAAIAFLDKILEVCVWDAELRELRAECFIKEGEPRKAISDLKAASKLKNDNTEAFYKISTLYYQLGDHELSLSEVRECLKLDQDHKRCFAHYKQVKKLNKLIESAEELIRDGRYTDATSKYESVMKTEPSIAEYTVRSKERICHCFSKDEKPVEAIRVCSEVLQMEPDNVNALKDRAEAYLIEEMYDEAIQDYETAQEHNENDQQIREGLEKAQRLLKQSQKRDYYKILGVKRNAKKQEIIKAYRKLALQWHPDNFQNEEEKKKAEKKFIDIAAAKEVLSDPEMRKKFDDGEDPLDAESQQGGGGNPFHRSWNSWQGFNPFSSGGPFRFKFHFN", "assay": "co-IP, anti-FLAG, lysate of cells with C-FLAG B3GNT2; mass spectrometry"}, "RPL18 (human)": {"biological_target": "RPL18 (human) (UniProt Q07020)", "assay": "co-IP, anti-FLAG, lysate of cells with C-FLAG B3GNT2; mass spectrometry"}, "RPS28 (human)": {"biological_target": "RPS28 (human) (UniProt P62857)", "assay": "co-IP, anti-FLAG, lysate of cells with C-FLAG B3GNT2; mass spectrometry"}, "RPL13A (human)": {"biological_target": "RPL13A (human) (UniProt P40429)", "assay": "co-IP/MS, IgG control IP of N-FLAG B3GNT2 cell lysate"}, "RPL12 (human)": {"biological_target": "RPL12 (human) (UniProt P30050)", "assay": "co-IP/MS, IgG control IP of N-FLAG B3GNT2 cell lysate"}, "PRDX2 (human)": {"biological_target": "PRDX2 (human) (UniProt P32119)", "sequence (P32119 2-198 limits assumed)": "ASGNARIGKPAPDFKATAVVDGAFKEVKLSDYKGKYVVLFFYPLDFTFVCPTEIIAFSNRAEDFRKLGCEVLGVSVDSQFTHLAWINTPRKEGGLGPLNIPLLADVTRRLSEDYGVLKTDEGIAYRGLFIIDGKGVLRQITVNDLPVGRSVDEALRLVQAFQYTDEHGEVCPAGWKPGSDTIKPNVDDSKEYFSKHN", "assay": "co-IP/MS, IgG control IP of N-FLAG B3GNT2 cell lysate"}, "CASP14 (human)": {"biological_target": "CASP14 (human) (UniProt P31944)", "sequence (P31944 whole entry)": "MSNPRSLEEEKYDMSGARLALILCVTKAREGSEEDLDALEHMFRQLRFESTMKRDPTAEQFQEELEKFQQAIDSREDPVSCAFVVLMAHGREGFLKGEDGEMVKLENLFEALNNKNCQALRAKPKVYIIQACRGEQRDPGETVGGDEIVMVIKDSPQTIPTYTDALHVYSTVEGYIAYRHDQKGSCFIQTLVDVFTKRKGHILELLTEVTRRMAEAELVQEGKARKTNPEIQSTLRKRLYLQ", "assay": "co-IP/MS, IgG control IP of N-FLAG B3GNT2 cell lysate"}, "RPS3A (human)": {"biological_target": "RPS3A (human) (UniProt P61247)", "assay": "co-IP/MS, IgG control IP of N-FLAG B3GNT2 cell lysate"}, "TGM3 (human)": {"biological_target": "TGM3 (human) (UniProt Q08188)", "sequence (Q08188 2-693 limits assumed)": "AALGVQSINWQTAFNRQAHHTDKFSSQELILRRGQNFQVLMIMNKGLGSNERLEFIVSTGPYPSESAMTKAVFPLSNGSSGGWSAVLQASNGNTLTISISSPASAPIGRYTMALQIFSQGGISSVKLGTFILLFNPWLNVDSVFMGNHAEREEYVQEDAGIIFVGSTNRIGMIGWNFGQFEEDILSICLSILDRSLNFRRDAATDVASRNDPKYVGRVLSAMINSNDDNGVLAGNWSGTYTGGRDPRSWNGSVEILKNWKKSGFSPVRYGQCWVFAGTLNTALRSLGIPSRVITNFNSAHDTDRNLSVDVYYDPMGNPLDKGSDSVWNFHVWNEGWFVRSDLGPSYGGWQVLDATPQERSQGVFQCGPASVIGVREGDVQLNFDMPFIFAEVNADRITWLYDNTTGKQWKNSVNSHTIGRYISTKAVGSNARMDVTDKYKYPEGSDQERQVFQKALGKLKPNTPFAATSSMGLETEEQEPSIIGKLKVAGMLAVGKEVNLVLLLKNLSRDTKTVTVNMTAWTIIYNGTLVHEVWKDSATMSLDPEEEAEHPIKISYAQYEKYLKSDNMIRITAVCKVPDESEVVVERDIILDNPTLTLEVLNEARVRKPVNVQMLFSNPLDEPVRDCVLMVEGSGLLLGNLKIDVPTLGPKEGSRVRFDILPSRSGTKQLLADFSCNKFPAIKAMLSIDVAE", "assay": "co-IP/MS, IgG control IP of N-FLAG B3GNT2 cell lysate"}, "SLC25A4 (human)": {"biological_target": "SLC25A4 (human) (UniProt P12235)", "sequence (P12235 2-298 limits assumed)": "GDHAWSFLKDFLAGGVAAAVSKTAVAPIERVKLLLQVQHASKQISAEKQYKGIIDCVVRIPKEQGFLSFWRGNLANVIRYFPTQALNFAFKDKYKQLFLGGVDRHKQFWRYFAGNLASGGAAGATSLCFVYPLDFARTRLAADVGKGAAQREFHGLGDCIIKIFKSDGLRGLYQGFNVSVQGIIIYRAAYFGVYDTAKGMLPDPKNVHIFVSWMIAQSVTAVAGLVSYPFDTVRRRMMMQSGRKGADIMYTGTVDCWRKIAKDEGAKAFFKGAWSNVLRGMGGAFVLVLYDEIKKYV", "assay": "co-IP/MS, IgG control IP of N-FLAG B3GNT2 cell lysate"}, "LRP1 (human)": {"biological_target": "LRP1 (human) (UniProt Q07954)", "assay": "co-IP/MS, IgG control IP of N-FLAG B3GNT2 cell lysate"}, "HSD17B12 (human)": {"biological_target": "HSD17B12 (human) (UniProt Q53GQ0)", "sequence (Q53GQ0 whole entry)": "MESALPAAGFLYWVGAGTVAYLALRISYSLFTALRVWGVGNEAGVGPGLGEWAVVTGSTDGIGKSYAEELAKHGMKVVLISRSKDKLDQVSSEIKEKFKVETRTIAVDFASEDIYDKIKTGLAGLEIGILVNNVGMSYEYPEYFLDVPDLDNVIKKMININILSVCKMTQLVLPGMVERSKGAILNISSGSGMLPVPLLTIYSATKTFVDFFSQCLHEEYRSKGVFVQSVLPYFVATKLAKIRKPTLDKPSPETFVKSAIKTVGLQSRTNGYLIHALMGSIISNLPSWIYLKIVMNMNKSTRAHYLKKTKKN", "assay": "co-IP/MS, IgG control IP of N-FLAG B3GNT2 cell lysate"}, "ERLIN2 (human)": {"biological_target": "ERLIN2 (human) (UniProt O94905)", "sequence (O94905 whole entry)": "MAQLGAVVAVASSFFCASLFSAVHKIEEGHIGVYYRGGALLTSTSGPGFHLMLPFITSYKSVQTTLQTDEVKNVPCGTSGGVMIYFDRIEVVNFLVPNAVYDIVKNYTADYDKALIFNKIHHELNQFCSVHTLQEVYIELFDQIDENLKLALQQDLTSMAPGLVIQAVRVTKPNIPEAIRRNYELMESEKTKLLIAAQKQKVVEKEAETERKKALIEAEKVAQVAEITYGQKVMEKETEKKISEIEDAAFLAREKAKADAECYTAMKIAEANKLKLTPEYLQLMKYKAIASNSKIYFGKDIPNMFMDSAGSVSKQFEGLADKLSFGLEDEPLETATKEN", "assay": "co-IP/MS, IgG control IP of N-FLAG B3GNT2 cell lysate"}, "FKBP10 (human)": {"biological_target": "FKBP10 (human) (UniProt Q96AY3)", "sequence (Q96AY3 27-582 limits assumed)": "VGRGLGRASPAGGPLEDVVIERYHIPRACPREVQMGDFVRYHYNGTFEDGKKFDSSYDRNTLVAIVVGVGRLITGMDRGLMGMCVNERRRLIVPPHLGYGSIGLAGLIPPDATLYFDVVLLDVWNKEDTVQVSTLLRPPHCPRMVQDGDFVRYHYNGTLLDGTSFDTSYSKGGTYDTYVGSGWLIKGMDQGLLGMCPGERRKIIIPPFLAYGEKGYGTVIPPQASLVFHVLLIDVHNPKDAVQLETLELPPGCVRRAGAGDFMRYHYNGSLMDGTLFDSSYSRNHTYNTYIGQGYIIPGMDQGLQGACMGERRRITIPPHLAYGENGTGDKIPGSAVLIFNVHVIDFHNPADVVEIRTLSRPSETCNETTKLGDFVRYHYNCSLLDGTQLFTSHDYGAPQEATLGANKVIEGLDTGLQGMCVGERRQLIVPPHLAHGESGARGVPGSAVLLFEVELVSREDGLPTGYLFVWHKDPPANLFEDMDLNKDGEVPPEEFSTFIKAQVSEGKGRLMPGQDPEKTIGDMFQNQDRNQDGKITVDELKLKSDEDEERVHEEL", "assay": "co-IP/MS, IgG control IP of N-FLAG B3GNT2 cell lysate"}, "RPS7 (human)": {"biological_target": "RPS7 (human) (UniProt P62081)", "assay": "co-IP/MS, IgG control IP of N-FLAG B3GNT2 cell lysate"}, "RPS9 (human)": {"biological_target": "RPS9 (human) (UniProt P46781)", "assay": "co-IP/MS, IgG control IP of N-FLAG B3GNT2 cell lysate"}, "RPLPO (human)": {"biological_target": "RPLPO (human) (UniProt P05388)", "assay": "co-IP/MS, IgG control IP of N-FLAG B3GNT2 cell lysate"}, "RCN2 (human)": {"biological_target": "RCN2 (human) (UniProt Q14257)", "sequence (Q14257 other isoform, or with tags, fused parts or gaps limits assumed)": "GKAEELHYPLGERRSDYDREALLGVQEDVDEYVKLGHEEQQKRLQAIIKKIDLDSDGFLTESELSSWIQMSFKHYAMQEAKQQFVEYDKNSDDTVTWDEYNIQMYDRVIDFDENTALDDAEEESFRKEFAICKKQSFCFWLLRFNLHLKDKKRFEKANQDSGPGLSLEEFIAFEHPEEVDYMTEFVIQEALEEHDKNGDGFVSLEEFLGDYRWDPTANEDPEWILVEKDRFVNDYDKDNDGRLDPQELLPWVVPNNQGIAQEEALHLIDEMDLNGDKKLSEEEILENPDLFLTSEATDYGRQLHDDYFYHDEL", "assay": "co-IP/MS, IgG control IP of N-FLAG B3GNT2 cell lysate"}}, "data": [{"substance": "C-terminal FLAG tagged B3GNT2 (from UniProt Q9NY97 1-397) (enzyme)", "values": [{"measurement": "co-IP mass spectrometry count", "setting": "LSM12 (human)", "result": 4}, {"measurement": "co-IP mass spectrometry count", "setting": "PUM1 (human)", "result": 3}, {"measurement": "co-IP mass spectrometry count", "setting": "SERBP1 (human)", "result": 10}, {"measurement": "co-IP mass spectrometry count", "setting": "MOV10 (human)", "result": 3}, {"measurement": "co-IP mass spectrometry count", "setting": "DNAJC3 (human)", "result": 3}, {"measurement": "co-IP mass spectrometry count", "setting": "RPL18 (human)", "result": 24}, {"measurement": "co-IP mass spectrometry count", "setting": "RPS28 (human)", "result": 3}]}, {"substance": "IgG control (Millipore Sigma 12-371) (antibody)", "values": [{"measurement": "co-IP mass spectrometry count", "setting": "RPL13A (human)", "result": 0}, {"measurement": "co-IP mass spectrometry count", "setting": "RPL12 (human)", "result": 4}, {"measurement": "co-IP mass spectrometry count", "setting": "PRDX2 (human)", "result": 5}, {"measurement": "co-IP mass spectrometry count", "setting": "CASP14 (human)", "result": 3}, {"measurement": "co-IP mass spectrometry count", "setting": "RPS3A (human)", "result": 9}, {"measurement": "co-IP mass spectrometry count", "setting": "TGM3 (human)", "result": 2}, {"measurement": "co-IP mass spectrometry count", "setting": "SLC25A4 (human)", "result": 0}, {"measurement": "co-IP mass spectrometry count", "setting": "LRP1 (human)", "result": 0}, {"measurement": "co-IP mass spectrometry count", "setting": "HSD17B12 (human)", "result": 0}, {"measurement": "co-IP mass spectrometry count", "setting": "ERLIN2 (human)", "result": 0}, {"measurement": "co-IP mass spectrometry count", "setting": "FKBP10 (human)", "result": 0}, {"measurement": "co-IP mass spectrometry count", "setting": "RPS7 (human)", "result": 2}, {"measurement": "co-IP mass spectrometry count", "setting": "RPS9 (human)", "result": 3}, {"measurement": "co-IP mass spectrometry count", "setting": "RPLPO (human)", "result": 0}, {"measurement": "co-IP mass spectrometry count", "setting": "RCN2 (human)", "result": 0}]}]}
